Experimental data taken from publication PMC6829520.

Tests used:
[1] = surface biotinylation, streptavidin pull-down, immunoblot, HEK-293T; details: glycan lost; control: wild type
[2] = eGFP fluorescence microscopy with WGA membrane stain, HeLa; details: glycan lost; control: hTREK-1-WT-eGFP
[3] = TEVC pulse step protocol, oocytes, 48 h; details: glycan lost; control: wild type
[4] = TEVC, oocytes, 24 h versus 48 h; details: glycan lost; control: wild type
[5] = TEVC, Xenopus oocytes, +20 mV, 48 h; details: glycan lost; control: wild type
[6] = TEVC, Xenopus oocytes; details: glycan lost
[7] = TEVC, Xenopus oocytes, +20 mV, 24/48 h; details: glycan lost; control: DMSO vehicle
[8] = TEVC pulse step protocol, oocytes; details: glycan lost; control: DMSO vehicle

B1: hTREK-1 / hK2P2.1: N110Q (protein)
parent chain: MLPSASRERPGYRAGVAAPDLLDPKSAAQNSKPRLSFSTKPTVLASRVESDTTINVMKWKTVSTIFLVVVLYLIIGATVFKALEQPHEISQRTTIVIQKQTFISQHSCVNSTELDELIQQIVAAINAGIIPLGNTSNQISHWDLGSSFFFAGTVITTIGFGNISPRTEGGKIFCIIYALLGIPLFGFLLAGVGDQLGTIFGKGIAKVEDTFIKWNVSQTKIRIISTIIFILFGCVLFVALPAIIFKHIEGWSALDAIYFVVITLTTIGFGDYVAGGSDIEYLDFYKPVVWFWILVGLAYFAAVLSMIGDWLRVISKKTKEEVGEFRAHAAEWTANVTAEFKETRRRLSVEIYDKFQRATSIKRKLSAELAGNHNQELTPCRRTLSVNHLTSERDVLPPLLKTESIYLNGLTPHCAGEEIAVIENIK
- localisation_or_trafficking, other: reduction of surface fraction relative to WT [1]: decreases, reduction of surface protein expression (about 16 % for both, N110Q and N134Q)
- localisation_or_trafficking [2]: no change
- other: current-voltage relationship [3]: no change
- other: current at 24 h relative to 48 h (onset of current), other: 24 h current as % of 48 h current [4]: decreases, 54 vs 57 % to 66%
- other: channel current, percent_of_wt [5]: decreases
- other: resting membrane potential ([6]; control: wild type): changes

B2: hTREK-1 / hK2P2.1: tunicamycin incubation (0.75 or 1.5 mg/L) (protein)
parent chain: MLPSASRERPGYRAGVAAPDLLDPKSAAQNSKPRLSFSTKPTVLASRVESDTTINVMKWKTVSTIFLVVVLYLIIGATVFKALEQPHEISQRTTIVIQKQTFISQHSCVNSTELDELIQQIVAAINAGIIPLGNTSNQISHWDLGSSFFFAGTVITTIGFGNISPRTEGGKIFCIIYALLGIPLFGFLLAGVGDQLGTIFGKGIAKVEDTFIKWNVSQTKIRIISTIIFILFGCVLFVALPAIIFKHIEGWSALDAIYFVVITLTTIGFGDYVAGGSDIEYLDFYKPVVWFWILVGLAYFAAVLSMIGDWLRVISKKTKEEVGEFRAHAAEWTANVTAEFKETRRRLSVEIYDKFQRATSIKRKLSAELAGNHNQELTPCRRTLSVNHLTSERDVLPPLLKTESIYLNGLTPHCAGEEIAVIENIK
- other: channel current [7]: decreases, tunicamycin treatment (incubation with 1.5 mg/L) resulted in a current reduction of 79.4%

B3: hTREK-1 / hK2P2.1: tunicamycin coinjection (2 or 3 ng per oocyte) (protein)
parent chain: MLPSASRERPGYRAGVAAPDLLDPKSAAQNSKPRLSFSTKPTVLASRVESDTTINVMKWKTVSTIFLVVVLYLIIGATVFKALEQPHEISQRTTIVIQKQTFISQHSCVNSTELDELIQQIVAAINAGIIPLGNTSNQISHWDLGSSFFFAGTVITTIGFGNISPRTEGGKIFCIIYALLGIPLFGFLLAGVGDQLGTIFGKGIAKVEDTFIKWNVSQTKIRIISTIIFILFGCVLFVALPAIIFKHIEGWSALDAIYFVVITLTTIGFGDYVAGGSDIEYLDFYKPVVWFWILVGLAYFAAVLSMIGDWLRVISKKTKEEVGEFRAHAAEWTANVTAEFKETRRRLSVEIYDKFQRATSIKRKLSAELAGNHNQELTPCRRTLSVNHLTSERDVLPPLLKTESIYLNGLTPHCAGEEIAVIENIK
- other: channel current [7]: decreases

B4: hTREK-1 / hK2P2.1: N134Q (protein)
parent chain: MLPSASRERPGYRAGVAAPDLLDPKSAAQNSKPRLSFSTKPTVLASRVESDTTINVMKWKTVSTIFLVVVLYLIIGATVFKALEQPHEISQRTTIVIQKQTFISQHSCVNSTELDELIQQIVAAINAGIIPLGNTSNQISHWDLGSSFFFAGTVITTIGFGNISPRTEGGKIFCIIYALLGIPLFGFLLAGVGDQLGTIFGKGIAKVEDTFIKWNVSQTKIRIISTIIFILFGCVLFVALPAIIFKHIEGWSALDAIYFVVITLTTIGFGDYVAGGSDIEYLDFYKPVVWFWILVGLAYFAAVLSMIGDWLRVISKKTKEEVGEFRAHAAEWTANVTAEFKETRRRLSVEIYDKFQRATSIKRKLSAELAGNHNQELTPCRRTLSVNHLTSERDVLPPLLKTESIYLNGLTPHCAGEEIAVIENIK
- localisation_or_trafficking, other: reduction of surface fraction relative to WT [1]: decreases
- localisation_or_trafficking [2]: no change
- other: current-voltage relationship [3]: no change
- other: current at 24 h relative to 48 h (onset of current), other: 24 h current as % of 48 h current [4]: decreases, 41 vs 57 % to 66%
- other: channel current, percent_of_wt [5]: decreases
- other: resting membrane potential ([6]; control: wild type): changes

B5: hTREK-1 / hK2P2.1: tunicamycin (incubation or injection) (protein)
parent chain: MLPSASRERPGYRAGVAAPDLLDPKSAAQNSKPRLSFSTKPTVLASRVESDTTINVMKWKTVSTIFLVVVLYLIIGATVFKALEQPHEISQRTTIVIQKQTFISQHSCVNSTELDELIQQIVAAINAGIIPLGNTSNQISHWDLGSSFFFAGTVITTIGFGNISPRTEGGKIFCIIYALLGIPLFGFLLAGVGDQLGTIFGKGIAKVEDTFIKWNVSQTKIRIISTIIFILFGCVLFVALPAIIFKHIEGWSALDAIYFVVITLTTIGFGDYVAGGSDIEYLDFYKPVVWFWILVGLAYFAAVLSMIGDWLRVISKKTKEEVGEFRAHAAEWTANVTAEFKETRRRLSVEIYDKFQRATSIKRKLSAELAGNHNQELTPCRRTLSVNHLTSERDVLPPLLKTESIYLNGLTPHCAGEEIAVIENIK
- other: resting membrane potential ([6]; control: DMSO vehicle): changes

B6: hTREK-1 / hK2P2.1: tunicamycin (protein)
parent chain: MLPSASRERPGYRAGVAAPDLLDPKSAAQNSKPRLSFSTKPTVLASRVESDTTINVMKWKTVSTIFLVVVLYLIIGATVFKALEQPHEISQRTTIVIQKQTFISQHSCVNSTELDELIQQIVAAINAGIIPLGNTSNQISHWDLGSSFFFAGTVITTIGFGNISPRTEGGKIFCIIYALLGIPLFGFLLAGVGDQLGTIFGKGIAKVEDTFIKWNVSQTKIRIISTIIFILFGCVLFVALPAIIFKHIEGWSALDAIYFVVITLTTIGFGDYVAGGSDIEYLDFYKPVVWFWILVGLAYFAAVLSMIGDWLRVISKKTKEEVGEFRAHAAEWTANVTAEFKETRRRLSVEIYDKFQRATSIKRKLSAELAGNHNQELTPCRRTLSVNHLTSERDVLPPLLKTESIYLNGLTPHCAGEEIAVIENIK
- other: current-voltage relationship [8]: no change

B7: hTREK-1 / hK2P2.1: N110Q/N134Q (protein)
parent chain: MLPSASRERPGYRAGVAAPDLLDPKSAAQNSKPRLSFSTKPTVLASRVESDTTINVMKWKTVSTIFLVVVLYLIIGATVFKALEQPHEISQRTTIVIQKQTFISQHSCVNSTELDELIQQIVAAINAGIIPLGNTSNQISHWDLGSSFFFAGTVITTIGFGNISPRTEGGKIFCIIYALLGIPLFGFLLAGVGDQLGTIFGKGIAKVEDTFIKWNVSQTKIRIISTIIFILFGCVLFVALPAIIFKHIEGWSALDAIYFVVITLTTIGFGDYVAGGSDIEYLDFYKPVVWFWILVGLAYFAAVLSMIGDWLRVISKKTKEEVGEFRAHAAEWTANVTAEFKETRRRLSVEIYDKFQRATSIKRKLSAELAGNHNQELTPCRRTLSVNHLTSERDVLPPLLKTESIYLNGLTPHCAGEEIAVIENIK
- localisation_or_trafficking, other: reduction of surface fraction relative to WT [1]: decreases, accompanied by a reduction in surface expression of 70.2%
- localisation_or_trafficking [2]: no change
- other: current-voltage relationship [3]: no change
- other: current at 24 h relative to 48 h (onset of current), other: 24 h current as % of 48 h current [4]: decreases, 31 vs 57 % to 66%
- other: channel current, percent_of_wt [5]: decreases, a current reduction of 65.5 ± 0.7 % in nonglycosylated subunits
- other: resting membrane potential ([6]; control: wild type): changes
